Sequences and labels used below:
B1: NAD-dependent protein deacetylase sirtuin-1 (Homo sapiens), Q96EB6 (parent)
chain: MADEAALALQPGGSPSAAGADREAASSPAGEPLRKRPRRDGPGLERSPGEPGGAAPEREVPAAARGCPGAAAAALWREAEAEAAAAGGEQEAQATAAAGEGDNGPGLQGPSREPPLADNLYDEDDDDEGEEEEEAAAAAIGYRDNLLFGDEIITNGFHSCESDEEDRASHASSSDWTPRPRIGPYTFVQQHLMIGTDPRTILKDLLPETIPPPELDDMTLWQIVINILSEPPKRKKRKDINTIEDAVKLLQECKKIIVLTGAGVSVSCGIPDFRSRDGIYARLAVDFPDLPDPQAMFDIEYFRKDPRPFFKFAKEIYPGQFQPSLCHKFIALSDKEGKLLRNYTQNIDTLEQVAGIQRIIQCHGSFATASCLICKYKVDCEAVRGDIFNQVVPRCPRCPADEPLAIMKPEIVFFGENLPEQFHRAMKYDKDEVDLLIVIGSSLKVRPVALIPSSIPHEVPQILINREPLPHLHFDVELLGDCDVIINELCHRLGGEYAKLCCNPVKLSEITEKPPRTQKELAYLSELPPTPLHVSEDSSSPERTSPPDSSVIVTLLDQAAKSNDDLDVSESKGCMEEKPQEVQTSRNVESIAEQMENPDLKNVGSSTGEKNERTSVAGTVRKCWPNRVAKEQISRRLDGNQYLFLPPNRYIFHGAEVYSDSEDDVLSSSSCGSNSDSGTCQSPSLEEPMEDESEIEEFYNGLEDEPDVPERAGGAGFGTDGDDQEAINEAISVKQEVTDMNYPSNKS

In this test the parent is B1. The conditions noted are these: with csk21_human CSNK2A1, P68400.
Chain of csk21_human CSNK2A1, P68400 (P68400 whole entry, looked up): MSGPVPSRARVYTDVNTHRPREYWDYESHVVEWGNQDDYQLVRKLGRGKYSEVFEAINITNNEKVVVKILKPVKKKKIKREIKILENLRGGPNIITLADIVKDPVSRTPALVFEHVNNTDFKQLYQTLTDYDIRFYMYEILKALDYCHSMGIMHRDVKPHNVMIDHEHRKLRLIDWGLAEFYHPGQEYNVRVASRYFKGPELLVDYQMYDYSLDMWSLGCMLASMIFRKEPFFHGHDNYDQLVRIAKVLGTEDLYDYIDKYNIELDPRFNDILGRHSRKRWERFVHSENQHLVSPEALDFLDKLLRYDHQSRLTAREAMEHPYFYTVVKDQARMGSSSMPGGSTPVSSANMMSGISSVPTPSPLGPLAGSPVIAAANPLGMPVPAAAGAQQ
S659A;S661A: the “effect of a mutation on the interaction” value is on record as “decreasing interaction”.

Values taken from IntAct's records for PubMed 19236849.
